B1: 71D6 llama-mouse chimeric mAb (mouse IgG1/lambda) (antibody)
heavy: ELQLVESGGGLVQPGGSLRLSCAASGFTFSSYGMSWVRQAPGKGLEWVSAINSYGGSTSYADSVKGRFTISRDNAKNTLYLQMNSLKPEDTAVYYCAKEVRADLSRYNDYESYDYWGQGTQVTVSSAKTTPPSVYPLAPGSAAQTNSMVTLGCLVKGYFPEPVTVTWNSGSLSSGVHTFPAVLQSDLYTLSSSVTVPSSPRPSETVTCNVAHPASSTKVDKKIVPRDCGCKPCICTVPEVSSVFIFPPKPKDVLTITLTPKVTCVVVDISKDDPEVQFSWFVDDVEVHTAQTQPREEQFNSTFRSVSELPIMHQDWLNGKEFKCRVNSAAFPAPIEKTISKTKGRPKAPQVYTIPPPKEQMAKDKVSLTCMITDFFPEDITVEWQWNGQPAENYKNTQPIMNTNGSYFVYSKLNVQKSNWEAGNTFTCSVLHEGLHNHHTEKSLSHSPGK
light: QPVLNQPSALSVTLGQTAKITCQGGSLGARYAHWYQQKPGQAPVLVIYDDDSRPSGIPERFSGSSSGGTATLTISGAQAEDEGDYYCQSADSSGSVFGGGTHLTVLGQPKSSPSVTLFPPSSEELETNKATLVCTITDFYPGVVTVDWKVDGTPVTQGMETTQPSKQSNNKYMASSYLTLTARAWERHSSYSCQVTHEGHTVEKSLSRADCS
notes: also called 71D6 (mouse format)
B2: 71G2 llama-mouse chimeric mAb (mouse IgG1/lambda) (antibody)
heavy: EVQLQESGGGLVQPGGSLRLSCAASGFTFSIYDMSWVRQAPGKGLEWVSTINSDGSSTSYVDSVKGRFTISRDNAKNTLYLQMNSLKPEDTAVYYCAKVYGSTWDVGPMGYGMDYWGKGTLVTVSSAKTTPPSVYPLAPGSAAQTNSMVTLGCLVKGYFPEPVTVTWNSGSLSSGVHTFPAVLQSDLYTLSSSVTVPSSPRPSETVTCNVAHPASSTKVDKKIVPRDCGCKPCICTVPEVSSVFIFPPKPKDVLTITLTPKVTCVVVDISKDDPEVQFSWFVDDVEVHTAQTQPREEQFNSTFRSVSELPIMHQDWLNGKEFKCRVNSAAFPAPIEKTISKTKGRPKAPQVYTIPPPKEQMAKDKVSLTCMITDFFPEDITVEWQWNGQPAENYKNTQPIMNTNGSYFVYSKLNVQKSNWEAGNTFTCSVLHEGLHNHHTEKSLSHSPGK
light: SSALTQPSALSVSLGQTARITCQGGSLGSSYAHWYQQKPGQAPVLVIYGDDSRPSGIPERFSGSSSGGTATLTISGAQAEDEDDYYCQSTDSSGNTVFGGGTRLTVLGQPKSSPSVTLFPPSSEELETNKATLVCTITDFYPGVVTVDWKVDGTPVTQGMETTQPSKQSNNKYMASSYLTLTARAWERHSSYSCQVTHEGHTVEKSLSRADCS
notes: also called 71G2 (mouse format)
B3: 71G3 llama-mouse chimeric mAb (mouse IgG1/lambda) (antibody)
heavy: QVQLVESGGGLVQPGGSLRVSCAASGFTFSTYYMSWVRQAPGKGLEWVSDIRTDGGTYYADSVKGRFTMSRDNAKNTLYLQMNSLKPEDTALYYCARTRIFPSGYDYWGQGTQVTVSSAKTTPPSVYPLAPGSAAQTNSMVTLGCLVKGYFPEPVTVTWNSGSLSSGVHTFPAVLQSDLYTLSSSVTVPSSPRPSETVTCNVAHPASSTKVDKKIVPRDCGCKPCICTVPEVSSVFIFPPKPKDVLTITLTPKVTCVVVDISKDDPEVQFSWFVDDVEVHTAQTQPREEQFNSTFRSVSELPIMHQDWLNGKEFKCRVNSAAFPAPIEKTISKTKGRPKAPQVYTIPPPKEQMAKDKVSLTCMITDFFPEDITVEWQWNGQPAENYKNTQPIMNTNGSYFVYSKLNVQKSNWEAGNTFTCSVLHEGLHNHHTEKSLSHSPGK
light: QAVVTQEPSLSVSPGGTVTLTCGLSSGSVTTSNYPGWFQQTPGQAPRTLIYNTNSRHSGVPSRFSGSISGNKAALTIMGAQPEDEADYYCSLYPGSTTVFGGGTHLTVLGQPKSSPSVTLFPPSSEELETNKATLVCTITDFYPGVVTVDWKVDGTPVTQGMETTQPSKQSNNKYMASSYLTLTARAWERHSSYSCQVTHEGHTVEKSLSRADCS
notes: also called 71G3 (mouse format)
B4: 76H10 llama-human chimeric mAb (human IgG1/lambda) (antibody, V domains shown)
VH: QLQLVESGGGLVQPGGSLRVSCTASGFTFNTYYMTWVRQAPGKGLEWVSDINSGGGTYYADSVKGRFTISRDNAKNTLYLQMNSLKPEDTALYYCVRVRIWPVGYDYWGQGTQVTVSS
VL: QAVVTQEPSLSVSPGGTVTLTCGLSSGSVTTSNYPGWFQQTPGQAPRTLIYNTNNRHSGVPSRFSGSISGNKAALTITGAQPEDEADYYCSLYTGSYTTVFGGGTHLTVLQ

Experiments:
[1] = target: monkey MET ECD (cynomolgus monkey); assay: ELISA: MET ECD immobilized (100 ng/well), mAb in human IgG1/lambda format in solution (0-40 nM), HRP anti-human Fc
[2] = target: T1, human MET ECD (human, UniProt P08581 25-932); assay: as above
T1 construct: range 1-932; recombinant ECD made by standard protein engineering; also called hMET; human MET extracellular domain
Source text: (§1) To this end, we investigated whether our human/mouse equivalent anti-MET antibodies cross-reacted with MET from other species, including rat (Rattus norvegicus) and cynomolgus monkey (Macaca fascicularis). […] Human and mouse MET ECD were used as controls. A restricted panel of antibodies representative of both SEMA binders (71D6, 71C3, 71D4, 71A3, 71G2) and PSI binders (76H10, 71G3) was selected. The 5D5 prior art antibody was used as control. MET ECD proteins were immobilized in solid phase (100 ng/well in a 96-well plate) and exposed to increasing concentrations (0-40 nM) of antibodies (with human constant regions) in solution. […] We conclude that the 71D6, 71C3, 71D4, 71A3, 71G2, 76H10 and 71G3 antibodies bind with similar affinity and capacity to human MET, mouse MET, rat MET and simian MET, at least as determined by ELISA.

[3] = target: T2, mouse MET ECD (mouse, UniProt P16056 25-931); assay: ELISA, mouse-format mAb on MET ECD
T2 construct: range 1-931; recombinant ECD; also called mMET; mouse MET extracellular domain
Protocol: (§2) In order to directly determine whether—and to what extent—the prior art agonistic anti-MET antibodies cross-reacted with mouse MET, and to compare them to our human/mouse equivalent anti-MET antibodies, we performed an ELISA assay. Since all prior art antibodies were obtained or engineered with a mouse IgG/A format, we employed the mouse IgG/A version of 71G3, 71D6 and 71G2. Human or mouse MET ECD was immobilized in solid phase (100 ng/well in a 96-well plate) and exposed to increasing concentrations of antibodies (0-40 nM) in solution. […] Among the antibodies tested, only 71G3, 71D6 and 71G2 bound to both human and mouse MET, and they did so with indistinguishable affinities and capacities.

[4] = target: T1, human MET ECD; assay: ELISA, mouse-format mAb on MET ECD
Protocol: as §2

[5] = target: T3, human MET on A549 human lung carcinoma cells (human, UniProt P08581 25-1390); assay: cell-based or functional assay
[6] = target: T4, mouse MET on MLP29 mouse liver precursor cells (mouse, UniProt P16056 25-1379); assay: cell-based or functional assay
[7] = target: T1, human MET ECD; assay: ELISA on MET ECD
[8] = target: T4, mouse MET on MLP29 mouse liver …; assay: flow cytometry, MLP29 cells
[9] = target: T3, human MET on A549 human lung carcinoma …; assay: flow cytometry, A549 cells
[10] = target: T2, mouse MET ECD; assay: ELISA on MET ECD
[11] = target: rat MET ECD (rat) (UniProt P97523); assay: ELISA: MET ECD immobilized (100 ng/well), mAb in human IgG1/lambda format in solution (0-40 nM), HRP anti-human Fc
[12] = target: human MET ECD mutant I (mutations 6, 7, 8) (human) (UniProt P08581); assay: ELISA on mutant human MET ECD
[13] = target: human MET ECD mutant J (mutations 6, 7) (human) (UniProt P08581); assay: ELISA on mutant human MET ECD
[14] = target: T2, mouse MET ECD; assay: ELISA: MET ECD immobilized (100 ng/well), mAb in human IgG1/lambda format in solution (0-40 nM), HRP anti-human Fc
Source text: as §1

[15] = target: T5, monkey MET ECD (cynomolgus monkey, UniProt A0A2K5UM36 25-932); assay: as above
T5 construct: also called simian MET; cynomolgus monkey MET
Source text: as §1

Sequence of monkey MET ECD (cynomolgus monkey) (A0A2K5 entry or part of it limits assumed): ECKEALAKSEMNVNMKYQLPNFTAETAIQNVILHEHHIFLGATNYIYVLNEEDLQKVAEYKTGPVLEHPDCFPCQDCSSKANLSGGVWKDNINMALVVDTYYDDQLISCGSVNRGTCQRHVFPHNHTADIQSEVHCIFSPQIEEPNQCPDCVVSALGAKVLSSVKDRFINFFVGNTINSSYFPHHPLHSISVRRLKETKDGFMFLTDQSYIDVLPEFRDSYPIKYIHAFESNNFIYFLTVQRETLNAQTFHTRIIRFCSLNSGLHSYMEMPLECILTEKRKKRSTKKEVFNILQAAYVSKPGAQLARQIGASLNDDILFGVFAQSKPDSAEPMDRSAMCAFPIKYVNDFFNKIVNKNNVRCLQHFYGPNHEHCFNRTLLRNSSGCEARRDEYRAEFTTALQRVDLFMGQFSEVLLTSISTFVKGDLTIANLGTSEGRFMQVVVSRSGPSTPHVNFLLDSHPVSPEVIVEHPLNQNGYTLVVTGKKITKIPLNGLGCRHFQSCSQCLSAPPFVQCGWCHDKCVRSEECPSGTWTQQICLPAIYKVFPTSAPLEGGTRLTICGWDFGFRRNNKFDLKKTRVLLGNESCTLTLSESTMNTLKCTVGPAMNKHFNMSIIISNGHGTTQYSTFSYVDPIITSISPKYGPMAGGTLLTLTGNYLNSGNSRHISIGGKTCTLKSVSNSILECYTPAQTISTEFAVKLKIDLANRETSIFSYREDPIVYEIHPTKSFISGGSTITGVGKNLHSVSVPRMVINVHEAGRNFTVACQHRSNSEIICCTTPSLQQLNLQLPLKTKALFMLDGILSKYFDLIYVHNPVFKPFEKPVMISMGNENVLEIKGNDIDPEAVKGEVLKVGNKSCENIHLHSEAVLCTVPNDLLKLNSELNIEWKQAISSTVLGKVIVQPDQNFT
T5 sequence (A0A2K5UM36 entry or part of it limits assumed): as the sequence (A0A2K5 entry or part of it limits assumed) above
Sequence of rat MET ECD (rat) (P97523 25-931 limits assumed, form in doubt): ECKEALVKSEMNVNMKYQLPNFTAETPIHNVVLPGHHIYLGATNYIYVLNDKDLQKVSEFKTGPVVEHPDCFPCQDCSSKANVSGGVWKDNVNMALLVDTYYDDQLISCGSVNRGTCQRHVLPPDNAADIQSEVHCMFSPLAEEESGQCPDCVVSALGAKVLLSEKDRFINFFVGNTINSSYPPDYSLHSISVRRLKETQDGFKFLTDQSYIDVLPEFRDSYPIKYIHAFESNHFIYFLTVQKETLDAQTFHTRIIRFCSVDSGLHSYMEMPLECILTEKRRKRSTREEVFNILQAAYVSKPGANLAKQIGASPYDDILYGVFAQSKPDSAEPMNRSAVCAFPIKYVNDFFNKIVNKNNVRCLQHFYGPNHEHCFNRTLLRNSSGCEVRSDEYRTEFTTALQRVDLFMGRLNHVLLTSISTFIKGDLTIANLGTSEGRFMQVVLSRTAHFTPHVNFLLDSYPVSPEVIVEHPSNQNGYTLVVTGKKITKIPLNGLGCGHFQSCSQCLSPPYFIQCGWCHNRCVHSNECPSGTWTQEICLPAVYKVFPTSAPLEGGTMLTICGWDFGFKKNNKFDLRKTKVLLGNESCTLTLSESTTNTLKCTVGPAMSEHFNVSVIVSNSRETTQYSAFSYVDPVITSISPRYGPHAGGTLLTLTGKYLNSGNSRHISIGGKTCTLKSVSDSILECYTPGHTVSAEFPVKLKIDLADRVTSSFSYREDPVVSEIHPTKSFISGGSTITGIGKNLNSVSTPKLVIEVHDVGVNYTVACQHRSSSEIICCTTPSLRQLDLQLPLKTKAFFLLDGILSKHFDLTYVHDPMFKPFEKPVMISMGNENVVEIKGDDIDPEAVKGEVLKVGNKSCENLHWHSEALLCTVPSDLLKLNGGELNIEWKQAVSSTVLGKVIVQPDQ

Molecule	EC50 (read off the curve) [1] [nM]	EC50 (read off the curve) [2] [nM]	EC50 [3] [nM]	EMAX [3] [OD450]	EC50 [4] [nM]	EMAX [4] [OD450]	A549 MET act. EMAX [5] [% HGF]	MLP29 MET act. EMAX [6] [% HGF]	EC50 [7] [nM]	EMAX [8] [% CTR]	EMAX [9] [% CTR]	EC50 [10] [nM]	EC50 (read off the curve) [11] [nM]	% binding (EMAX) vs WT MET ECD [12] [%]	% binding (EMAX) vs WT MET ECD [13] [%]	EC50 (read off the curve) [14] [nM]	EC50 (read off the curve) [15] [nM]
5D5 anti-human MET antibody, human IgG1/lambda format	0.3	0.2															
B1			0.044	2.94	0.042	2.69	98.3	103	0.038	119	122						
B2			0.091	2.96	0.098	2.86	102	102	0.113	128	142	0.109					
B3				3.06	0.058	3.11	90.8	91.9		110	116	0.062					
B4		~0.1											0.1	100	89	~0.03	~0.04
